Reference: patent US20220213181A1 (Novartis, published 2022)
Several values for one entry are separate records, joined by “and”; a condition that tells them apart may be missing. Identical values can stand only once.

Experiments:
[1] = biological target: T1, Human ANGPTL3(17-460)-FLAG-His-Avi (human, UniProt Q9Y5C1 17-460, biotin on the C-terminal Avi tag (BirA)); test: Octet (ForteBio) kinetics; average KD of the runs; no binding at 25 nM
T1 construct: also called full length human ANGPTL3; hANGPTL3
T1 sequence: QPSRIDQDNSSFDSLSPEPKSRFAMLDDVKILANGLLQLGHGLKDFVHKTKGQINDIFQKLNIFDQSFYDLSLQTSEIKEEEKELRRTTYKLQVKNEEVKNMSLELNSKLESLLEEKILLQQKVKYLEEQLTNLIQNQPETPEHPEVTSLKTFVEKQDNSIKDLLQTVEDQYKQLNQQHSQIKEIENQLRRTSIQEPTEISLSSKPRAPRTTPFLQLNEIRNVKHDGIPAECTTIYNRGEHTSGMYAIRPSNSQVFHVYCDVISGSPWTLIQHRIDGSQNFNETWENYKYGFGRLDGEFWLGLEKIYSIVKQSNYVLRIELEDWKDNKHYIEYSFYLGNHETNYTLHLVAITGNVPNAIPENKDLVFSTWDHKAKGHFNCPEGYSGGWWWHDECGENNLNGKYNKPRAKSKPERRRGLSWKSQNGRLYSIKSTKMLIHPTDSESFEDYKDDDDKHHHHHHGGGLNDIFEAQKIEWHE

[2] = biological target: T2, Rat ANGPTL4(24-405)-FLAG-His6-Avi (rat, UniProt Q6TMA8 24-405, biotin on the C-terminal Avi tag (BirA) where the protein is immobilised); test: Octet (ForteBio) kinetics; average KD of the runs; Octet kinetics; average KD of the three rat runs
T2 sequence: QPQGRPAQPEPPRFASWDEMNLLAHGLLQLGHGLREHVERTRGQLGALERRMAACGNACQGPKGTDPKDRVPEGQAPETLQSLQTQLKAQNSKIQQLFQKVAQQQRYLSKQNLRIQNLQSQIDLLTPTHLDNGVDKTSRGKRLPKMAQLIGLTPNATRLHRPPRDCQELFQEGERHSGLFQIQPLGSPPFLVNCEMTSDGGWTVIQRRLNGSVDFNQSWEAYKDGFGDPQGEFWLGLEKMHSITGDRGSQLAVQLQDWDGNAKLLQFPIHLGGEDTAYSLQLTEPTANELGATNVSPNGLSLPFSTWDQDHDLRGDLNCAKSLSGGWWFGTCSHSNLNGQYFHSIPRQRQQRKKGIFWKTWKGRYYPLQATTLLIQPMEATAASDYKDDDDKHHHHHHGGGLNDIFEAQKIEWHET

[3] = biological target: T3, Cynomolgus monkey ANGPTL4(26-161)-FLAG-His6-Avi (cynomolgus monkey, biotin on the C-terminal Avi tag (BirA) where the protein is immobilised); test: Octet (ForteBio) kinetics, biotinylated antigen on streptavidin sensor, IgG in solution
T3 construct: also called Cyno ANGPTL4 (26-161)
T3 chain: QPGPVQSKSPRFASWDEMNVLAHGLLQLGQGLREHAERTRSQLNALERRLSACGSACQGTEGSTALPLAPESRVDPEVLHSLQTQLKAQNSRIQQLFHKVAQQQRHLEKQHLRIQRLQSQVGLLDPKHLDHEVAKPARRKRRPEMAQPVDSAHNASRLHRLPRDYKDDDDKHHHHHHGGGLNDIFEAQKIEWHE

[4] = biological target: T2, Rat ANGPTL4(24-405)-FLAG-His6-Avi; test: as above
[5] = biological target: T4, Cynomolgus monkey ANGPTL4(26-406)-FLAG-His6-Avi (cynomolgus monkey, biotin on the C-terminal Avi tag (BirA) where the protein is immobilised); test: as above
T4 construct: also called Cyno ANGPTL4 (26-406)
T4 chain: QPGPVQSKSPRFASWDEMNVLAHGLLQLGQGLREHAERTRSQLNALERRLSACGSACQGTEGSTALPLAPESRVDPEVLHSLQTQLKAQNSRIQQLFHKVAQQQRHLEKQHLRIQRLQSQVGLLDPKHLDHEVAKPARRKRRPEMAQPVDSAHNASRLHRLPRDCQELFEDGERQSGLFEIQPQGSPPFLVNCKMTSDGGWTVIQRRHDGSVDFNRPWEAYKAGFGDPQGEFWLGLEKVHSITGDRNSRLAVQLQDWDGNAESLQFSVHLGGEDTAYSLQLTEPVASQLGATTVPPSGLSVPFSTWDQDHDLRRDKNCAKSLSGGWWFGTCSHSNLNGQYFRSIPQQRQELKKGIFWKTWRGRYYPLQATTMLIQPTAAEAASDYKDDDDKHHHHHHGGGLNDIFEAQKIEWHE

[6] = biological target: T5, Human ANGPTL4(26-161)-FLAG-His6-Avi (human, biotin on the C-terminal Avi tag (BirA) where the protein is immobilised); test: as above
T5 construct: also called human ANGPTL4 N-terminal coiled coil domain; hANGPTL4-CCD
T5 chain: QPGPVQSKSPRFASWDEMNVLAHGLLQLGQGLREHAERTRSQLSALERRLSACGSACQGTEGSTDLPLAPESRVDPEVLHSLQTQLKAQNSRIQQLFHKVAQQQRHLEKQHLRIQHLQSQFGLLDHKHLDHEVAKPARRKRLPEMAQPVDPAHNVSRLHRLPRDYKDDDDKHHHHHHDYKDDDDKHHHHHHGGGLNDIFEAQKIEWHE

B1: NEG276-LALA (antibody, human IgG1, kappa, L234A L235A)
heavy: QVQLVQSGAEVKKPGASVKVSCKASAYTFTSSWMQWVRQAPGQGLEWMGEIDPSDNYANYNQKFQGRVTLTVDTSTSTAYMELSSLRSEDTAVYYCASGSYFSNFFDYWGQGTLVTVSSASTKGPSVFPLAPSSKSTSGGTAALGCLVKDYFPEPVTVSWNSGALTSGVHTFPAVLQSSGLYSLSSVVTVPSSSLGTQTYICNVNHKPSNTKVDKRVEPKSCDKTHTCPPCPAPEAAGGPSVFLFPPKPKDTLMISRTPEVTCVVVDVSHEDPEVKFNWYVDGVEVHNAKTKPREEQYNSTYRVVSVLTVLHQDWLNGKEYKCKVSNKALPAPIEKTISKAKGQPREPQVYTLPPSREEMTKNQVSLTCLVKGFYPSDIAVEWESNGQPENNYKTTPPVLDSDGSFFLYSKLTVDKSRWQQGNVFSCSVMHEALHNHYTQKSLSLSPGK
light: EIVMTQSPATLSVSPGERATLSCKASQDIGSNLNWLQQKPGQAPRRLIYAVSNRGPGIPARFSGSRSGSEYTLTISSLQSEDFAVYYCLQYASSPWTFGQGTKVEIKRTVAAPSVFIFPPSDEQLKSGTASVVCLLNNFYPREAKVQWKVDNALQSGNSQESVTEQDSKDSTYSLSSTLTLSKADYEKHKVYACEVTHQGLSSPVTKSFNRGEC
- Kd [1]: > 6 nM
- Kd [2]: 6.34 nM
- koff [3]: 6.4e-06 s⁻¹ and 1.7e-05 s⁻¹
- kon [3]: 270000 M⁻¹ s⁻¹ and 190000 M⁻¹ s⁻¹
- Kd [4]: 6.03 nM
- Kd [5]: 0.015 nM and ≤ 0.014 nM
- koff [5]: 5.4e-06 s⁻¹
- kon [5]: 360000 M⁻¹ s⁻¹ and 370000 M⁻¹ s⁻¹
- Kd [6]: ≤ 0.023 nM and 0.052 nM
- koff [6]: 9.2e-06 s⁻¹
- kon [6]: 220000 M⁻¹ s⁻¹ and 180000 M⁻¹ s⁻¹
